Data: patent publication US20100029702A1, “Method For Identification of Compound Having Anti-Anxiety Effect” (priority 2006, published 2010)

Biological target: T1, variant 3 (Homo sapiens, UniProt O60241, DEL364-418)
T1 construct: a vector expressing each full-length cDNA clone was constructed; expressed in transfected cells; host or cells: CHO-K1 (variant3/CHO#14-18), variant3/pcDNA3.1
T1 sequence (O60241 with tags, fused parts or gaps DEL364-418): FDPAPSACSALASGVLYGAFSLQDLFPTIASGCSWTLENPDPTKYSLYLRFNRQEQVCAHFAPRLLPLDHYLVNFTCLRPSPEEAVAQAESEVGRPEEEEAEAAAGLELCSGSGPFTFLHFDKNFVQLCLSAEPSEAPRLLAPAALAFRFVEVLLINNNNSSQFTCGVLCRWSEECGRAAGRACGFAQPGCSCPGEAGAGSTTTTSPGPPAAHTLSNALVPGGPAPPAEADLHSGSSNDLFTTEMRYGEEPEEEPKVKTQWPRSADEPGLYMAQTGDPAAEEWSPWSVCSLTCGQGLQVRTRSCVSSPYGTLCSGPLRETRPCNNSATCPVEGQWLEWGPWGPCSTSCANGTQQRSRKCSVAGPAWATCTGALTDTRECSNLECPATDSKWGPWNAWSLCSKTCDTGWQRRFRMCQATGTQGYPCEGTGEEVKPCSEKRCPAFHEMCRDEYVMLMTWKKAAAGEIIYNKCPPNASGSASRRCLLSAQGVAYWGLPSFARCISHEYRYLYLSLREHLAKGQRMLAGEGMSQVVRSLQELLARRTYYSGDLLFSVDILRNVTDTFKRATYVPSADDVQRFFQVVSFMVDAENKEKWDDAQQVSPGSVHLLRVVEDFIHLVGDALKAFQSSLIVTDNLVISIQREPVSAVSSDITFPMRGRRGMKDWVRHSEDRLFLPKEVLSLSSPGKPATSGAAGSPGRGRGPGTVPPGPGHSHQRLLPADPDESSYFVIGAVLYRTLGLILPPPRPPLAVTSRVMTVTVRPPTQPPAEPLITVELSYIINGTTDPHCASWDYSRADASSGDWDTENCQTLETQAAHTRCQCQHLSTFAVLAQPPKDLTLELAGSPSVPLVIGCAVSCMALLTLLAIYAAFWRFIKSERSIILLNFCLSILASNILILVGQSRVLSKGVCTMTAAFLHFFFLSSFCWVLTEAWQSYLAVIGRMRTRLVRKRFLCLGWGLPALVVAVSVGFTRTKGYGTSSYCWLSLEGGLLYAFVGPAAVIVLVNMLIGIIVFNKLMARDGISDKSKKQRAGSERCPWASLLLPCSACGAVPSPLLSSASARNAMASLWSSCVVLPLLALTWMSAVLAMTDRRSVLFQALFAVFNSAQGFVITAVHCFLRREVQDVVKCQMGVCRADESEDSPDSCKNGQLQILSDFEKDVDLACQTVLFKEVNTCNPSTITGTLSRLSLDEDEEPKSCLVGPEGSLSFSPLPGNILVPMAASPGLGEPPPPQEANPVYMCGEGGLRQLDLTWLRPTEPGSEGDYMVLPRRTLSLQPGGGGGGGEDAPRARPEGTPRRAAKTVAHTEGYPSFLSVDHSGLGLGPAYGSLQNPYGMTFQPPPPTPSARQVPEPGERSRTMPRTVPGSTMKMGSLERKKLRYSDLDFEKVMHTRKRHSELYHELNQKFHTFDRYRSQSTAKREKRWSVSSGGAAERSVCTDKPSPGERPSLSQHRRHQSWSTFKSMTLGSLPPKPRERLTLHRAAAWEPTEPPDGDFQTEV
Test: Changes in intracellular Ca2+ concentration in variant 3 gene stably-expressing strain
Format: cell-based
Settings: variant 3 stably-expressing strain; CCK-8S 10 pM to 1 μM, figure at 1 nM
Description: Strains stably expressing splicing variants of the variant 3 gene were prepared by a method similar to the above-mentioned method using a variant 3 gene-expressing vector.
To analyze functions of the variant 3 gene, changes in the intracellular calcium (Ca^2+) concentration induced by CCK-8S were examined using a strain stably expressing the variant 3 gene prepared in Example 7. Changes in the intracellular calcium (Ca^2+) concentration were measured by a method similar to the method described in Example 5.
Cells were seeded in a 96-well plate (a plate with a black wall and a transparent bottom) at a cell count of 3×10^4/100 μL of medium/well and cultured overnight at 37° C. in a 5% CO2 incubator. On the following day, 50 μL of the medium was removed from each well, 50 μL of a loading buffer was added to each well, the mixture was reacted at room temperature for 1 h, so that a fluorescent dye contained in the loading buffer was taken up into the cell. The loading buffer was prepared by a method similar to the method described in Example 5. After reaction, changes over time in the fluorescence intensity after addition of CCK-8S in each well were measured using the FLEX station (Molecular Device) for 40 sec. CCK-8S was used at a final concentration of 10 pM to 1 μM. Furthermore, as a positive control of the assay, A23187 was used at a final concentration of 20 μM.

In the case of “cholecystokinin octapeptide sulfated form [CCK-8S]”, the “Change in intracellular Ca2+ concentration after addition of CCK-8S” value is reported as “increase”.
